Data: patent US20230406948A1 (APEXIGEN, published 2023)

How the values were obtained:
[1] = target: T1, human CD40 (human, UniProt P25942 21-193); experiment: method not stated
T1 construct: also called immobilized human CD40

[2] = target: T2, human CD40 on cells (native CD40 on Ramos cells, human B cells, human monocyte-derived dendritic cells); cell … (human, UniProt P25942 21-193); experiment: cell-based or functional assay
[3] = target: T2, human CD40 on cells (native CD40 on …); experiment: FACS on live Ramos cells, goat anti-human IgG PE
Experimental: In another experiment, the ability of the CD40 antibodies to bind to native CD40 protein was determined by FACS analysis with live Ramos cells. Ramos cells were harvested and blocked with 1.5 ml blocking buffer (0.1% BSA/PBS) for 30 minutes. Antibodies at various concentrations were added to cells and incubated for 1 hour. After washing, 50 ul Goat-anti-human IgG (H+L) PE antibody at 1:1000 dilution in blocking solution was added and incubated for 30 minutes. Cells were then washed with PBS and were re-suspended with […] and analyzed by FACS. The antibodies tested were the 19-21 rabbit anti-CD40 agonist antibody, SGN-40 developed by Seattle Genetics and CP870893 from Pfizer.

[4] = target: T3, CD40-Fc protein (Homo sapiens (Human), UniProt P25942 21-193); experiment: ELISA, plates coated with CD40-Fc protein, OD405nm
T3 construct: not shown: Fc
T3 sequence (P25942 21-193 limits assumed): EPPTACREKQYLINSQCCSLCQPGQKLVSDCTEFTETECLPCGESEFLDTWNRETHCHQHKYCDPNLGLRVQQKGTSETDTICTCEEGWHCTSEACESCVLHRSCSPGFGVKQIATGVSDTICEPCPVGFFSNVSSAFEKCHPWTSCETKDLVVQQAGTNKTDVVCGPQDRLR
Excerpt: In order to assess the ability of the APX005 […] mutant to bind to CD40, APX005 S267E heavy chain and light chain plasmids were purified from transformed bacteria and transfected into 293-6E cell. Four days after transfection, antibody-containing culture supernatants were collected and tested for binding to CD40 using ELISA (ELISA plates coated with CD40-Fc protein).

[5] = target: T4, fusion protein of rabbit Fc and OX40 (UniProt P43489 29-216); experiment: direct ELISA, 1 ug/ml rabbit Fc-OX40 fusion coated, goat anti-human IgG-HRP
T4 construct: Neither the species nor the order of the parts is stated; not shown: rabbit Fc
T4 sequence (looked up): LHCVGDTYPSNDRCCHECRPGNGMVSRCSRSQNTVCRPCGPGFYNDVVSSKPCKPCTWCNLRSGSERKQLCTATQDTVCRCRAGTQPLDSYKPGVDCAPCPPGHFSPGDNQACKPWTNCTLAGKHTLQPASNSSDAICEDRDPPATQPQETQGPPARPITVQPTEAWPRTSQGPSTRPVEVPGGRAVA
Experimental: (§1) Binding selectivity of APX005 was assessed by direct ELISA to a panel of TNFR family proteins. A total of 1 μg/ml of fusion protein of rabbit Fc and CD40, RANK, TweakR, OX40, DR5 and 4-1 BB were coated on ELISA plates. Bound APX005 was detected using goat anti-human HRP-conjugated IgG.

[6] = target: T5, fusion protein of rabbit Fc and RANK (UniProt Q9Y6Q6 30-212, limits assumed); experiment: direct ELISA, 1 ug/ml rabbit Fc-RANK fusion coated, goat anti-human IgG-HRP
T5 construct: Neither the species nor the order of the parts is stated; not shown: rabbit Fc
T5 sequence (looked up): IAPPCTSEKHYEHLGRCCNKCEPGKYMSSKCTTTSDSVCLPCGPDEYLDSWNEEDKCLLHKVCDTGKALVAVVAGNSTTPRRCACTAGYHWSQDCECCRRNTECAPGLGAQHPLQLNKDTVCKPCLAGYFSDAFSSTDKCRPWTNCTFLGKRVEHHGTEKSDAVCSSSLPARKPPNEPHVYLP
Experimental: as §1

[7] = target: T6, fusion protein of rabbit Fc and 4-1 BB (UniProt Q07011 24-186); experiment: direct ELISA, 1 ug/ml rabbit Fc-4-1BB fusion coated, goat anti-human IgG-HRP
T6 construct: Neither the species nor the order of the parts is stated; not shown: rabbit Fc
T6 sequence (Q07011 24-186): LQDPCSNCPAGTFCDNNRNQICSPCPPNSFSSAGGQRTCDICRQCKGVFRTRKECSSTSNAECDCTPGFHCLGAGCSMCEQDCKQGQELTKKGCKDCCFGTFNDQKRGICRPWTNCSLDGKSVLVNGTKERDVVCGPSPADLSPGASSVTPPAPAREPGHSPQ
Experimental: as §1

[8] = target: T7, mouse CD40 (mouse, UniProt P27512 20-193, limits assumed); experiment: direct ELISA according to paragraph 284 (1 ug/ml mouse CD40 coated, goat anti-human IgG-HRP); y axis of the sheet reads MFI
T7 construct: Coated on ELISA plates at 1 ug/ml
T7 sequence (P27512 20-193 limits assumed): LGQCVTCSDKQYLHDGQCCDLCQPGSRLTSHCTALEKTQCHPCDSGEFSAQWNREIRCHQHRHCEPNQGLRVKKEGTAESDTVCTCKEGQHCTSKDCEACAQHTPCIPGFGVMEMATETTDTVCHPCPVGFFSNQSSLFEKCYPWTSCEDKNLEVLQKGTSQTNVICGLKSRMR
Experimental: Cross-reactivity was assessed by direct ELISA. A total of 1 μg/ml of human CD40, monkey CD40 or mouse CD40 was coated on ELISA plates followed by incubation with 1 μg/ml of APX005 or control IgG1. Antibodies bound to CD40 were detected using goat anti-human IgG conjugated with HRP. APX005 clearly crossreacts with monkey CD40 but not mouse CD40. (FIG. 11A)

T2 sequence (P25942 21-193): as the sequence (P25942 21-193 limits assumed) above
T1 sequence (P25942 21-193 limits assumed): as above

B1: APX005, humanized version of the R-8 rabbit anti-CD40 antibody (antibody, IgG1, V domains shown)
VH: QVQLVESGGGVVQPGRSLRLSCAASGFSFSSTYVCWVRQAPGKGLEWIACIYTGDGTNYSASWAKGRFTISKDSSKNTVYLQMNSLRAEDTAVYFCARPDITYGFAINFWGPGTLVTVSS
VL: DIQMTQSPSSLSASVGDRVTIKCQASQSISSRLAWYQQKPGKPPKLLIYRASTLASGVPSRFSGSGSGTDFTLTISSLQPEDVATYYCQCTGYGISWPIGGGTKVEIK
notes: also called humanized R-8; APX005 wild type
- Kd [1]: 0.96 nM
- EC50 (ng/ml), CD40 agonist activity: up-regulation of CD86 on human B cells [2]: 24.4 ng/mL
- fold higher affinity than CP870893 [3]: 6 fold
- EC50 [4]: 0.0563 µg/mL
- binding result [5]: no binding
- binding result [6]: no binding
- binding result [7]: no binding
- binding result [8]: no binding
